# Data reported in patent US11873336 (TENEOBIO, dated 2024).
# Substitutions are numbered along the chain they refer to.
# T1: human CD22 on CD22-positive Burkitt's lymphoma cells (Daudi, Raji, Ramos) (human, UniProt P20273 20-847)
# T1 construct: whole, on cells; also called CD22+ cells; CD22 positive cells
# T1 sequence (looked up): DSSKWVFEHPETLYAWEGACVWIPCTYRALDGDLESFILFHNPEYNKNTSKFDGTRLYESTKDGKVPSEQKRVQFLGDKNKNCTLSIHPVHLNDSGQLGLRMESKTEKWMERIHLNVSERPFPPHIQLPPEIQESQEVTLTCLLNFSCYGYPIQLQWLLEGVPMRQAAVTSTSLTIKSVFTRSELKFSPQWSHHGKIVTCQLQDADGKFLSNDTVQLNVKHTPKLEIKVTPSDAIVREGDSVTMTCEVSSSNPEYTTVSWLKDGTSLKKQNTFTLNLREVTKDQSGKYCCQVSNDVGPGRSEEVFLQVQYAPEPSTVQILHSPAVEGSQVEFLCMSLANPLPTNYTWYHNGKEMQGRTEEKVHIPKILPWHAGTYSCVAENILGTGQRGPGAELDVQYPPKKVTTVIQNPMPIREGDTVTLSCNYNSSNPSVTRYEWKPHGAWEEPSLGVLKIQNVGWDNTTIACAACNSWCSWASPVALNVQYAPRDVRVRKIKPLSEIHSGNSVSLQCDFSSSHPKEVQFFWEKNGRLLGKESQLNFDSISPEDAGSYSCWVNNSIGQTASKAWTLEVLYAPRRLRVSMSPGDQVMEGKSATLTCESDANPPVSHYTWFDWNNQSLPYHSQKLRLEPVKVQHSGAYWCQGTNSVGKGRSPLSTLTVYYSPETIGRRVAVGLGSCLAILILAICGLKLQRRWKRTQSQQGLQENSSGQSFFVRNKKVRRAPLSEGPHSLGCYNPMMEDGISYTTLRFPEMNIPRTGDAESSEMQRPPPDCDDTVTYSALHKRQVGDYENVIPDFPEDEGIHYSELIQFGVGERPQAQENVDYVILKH
# T2: human CD22 protein (recombinant CD22 extracellular domain) (human, UniProt P20273 20-687)
# T2 construct: extracellular domain; also called SIGLEC-2
# T2 sequence (looked up): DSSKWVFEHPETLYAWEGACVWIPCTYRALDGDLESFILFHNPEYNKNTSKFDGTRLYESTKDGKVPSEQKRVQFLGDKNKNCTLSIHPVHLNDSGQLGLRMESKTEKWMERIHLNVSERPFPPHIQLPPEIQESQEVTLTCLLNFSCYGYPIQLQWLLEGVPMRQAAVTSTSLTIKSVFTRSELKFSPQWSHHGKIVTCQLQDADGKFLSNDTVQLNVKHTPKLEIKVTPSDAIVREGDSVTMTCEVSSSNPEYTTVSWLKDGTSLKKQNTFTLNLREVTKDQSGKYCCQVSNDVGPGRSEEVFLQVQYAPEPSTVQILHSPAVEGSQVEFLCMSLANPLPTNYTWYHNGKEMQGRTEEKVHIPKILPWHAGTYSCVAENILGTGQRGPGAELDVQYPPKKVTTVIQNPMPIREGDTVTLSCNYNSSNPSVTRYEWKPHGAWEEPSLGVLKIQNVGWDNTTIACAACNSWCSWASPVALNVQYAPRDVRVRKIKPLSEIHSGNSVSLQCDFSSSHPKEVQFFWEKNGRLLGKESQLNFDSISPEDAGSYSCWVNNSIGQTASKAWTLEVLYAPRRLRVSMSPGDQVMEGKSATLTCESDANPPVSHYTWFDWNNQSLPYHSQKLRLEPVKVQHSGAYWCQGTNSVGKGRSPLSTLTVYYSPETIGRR
# B1: anti-CD22 heavy chain-only antibody with the VH of SEQ ID NO: 39 (antibody, V domains shown)
# VH: QLQLQESGPGLVKPSETLSLTCTVSGDSISSGDYYWGWIRQPPGKGLEWIGHIYYSGATYYNPSLKNRVTISVDTSKNQFSLKLSSVTAADTAVYYCTREDSSNWRSRGQGTLVTVSS
# notes: Heavy chain-only antibody (UniAb), human IgG
# B2: anti-CD22 heavy chain-only antibody with the VH of SEQ ID NO: 24 (antibody, V domains shown)
# VH: B1 VH with A58V, N67S, K77R
# notes: as for B1
# B3: anti-CD22 heavy chain-only antibody with the VH of SEQ ID NO: 52 (antibody, V domains shown)
# VH: B1 VH with H52S, A58S, N67S
# notes: as for B1
# B4: anti-CD22 heavy chain-only antibody with the VH of SEQ ID NO: 44 (antibody, V domains shown)
# VH: B1 VH with D27G, K66E, E100D
# notes: as for B1
# B5: anti-CD22 heavy chain-only antibody with the VH of SEQ ID NO: 35 (antibody, V domains shown)
# VH: B1 VH with K66E, N104S
# notes: as for B1
# B6: anti-CD22 heavy chain-only antibody with the VH of SEQ ID NO: 38 (antibody, V domains shown)
# VH: B1 VH with K77R, K83N
# notes: as for B1
# B7: anti-CD22 heavy chain-only antibody with the VH of SEQ ID NO: 37 (antibody, V domains shown)
# VH: B1 VH with A58V
# notes: as for B1
# B8: anti-CD22 heavy chain-only antibody with the VH of SEQ ID NO: 29 (antibody, V domains shown)
# VH: B1 VH with K77R, E100D
# notes: as for B1
# B9: anti-CD22 heavy chain-only antibody with the VH of SEQ ID NO: 25 (antibody, V domains shown)
# VH: B1 VH with K66E, E100D
# notes: as for B1
# B10: anti-CD22 heavy chain-only antibody with the VH of SEQ ID NO: 50 (antibody, V domains shown)
# VH: B1 VH with H52N, E100D
# notes: as for B1
# B11: anti-CD22 heavy chain-only antibody with the VH of SEQ ID NO: 46 (antibody, V domains shown)
# VH: B1 VH with H52N, N104S
# notes: as for B1
# B12: anti-CD22 heavy chain-only antibody with the VH of SEQ ID NO: 27 (antibody, V domains shown)
# VH: B1 VH with A58V, K77R, K83N, N104S
# notes: as for B1
# B13: anti-CD22 heavy chain-only antibody with the VH of SEQ ID NO: 26 (antibody, V domains shown)
# VH: B1 VH with A58V, N104S
# notes: as for B1
# B14: anti-CD22 heavy chain-only antibody with the VH of SEQ ID NO: 48 (antibody, V domains shown)
# VH: B1 VH with Q41H, N104S
# notes: as for B1
# B15: anti-CD22 heavy chain-only antibody with the VH of SEQ ID NO: 51 (antibody, V domains shown)
# VH: B1 VH with D27G, G32S, D33S, H52S, A58S, N67S, E100D
# notes: as for B1
# B16: anti-CD22 heavy chain-only antibody with the VH of SEQ ID NO: 28 (antibody, V domains shown)
# VH: B1 VH with K77R, K83N, E100D
# notes: as for B1
# B17: anti-CD22 heavy chain-only antibody with the VH of SEQ ID NO: 49 (antibody, V domains shown)
# VH: B1 VH with H52N
# notes: as for B1
# B18: anti-CD22 heavy chain-only antibody with the VH of SEQ ID NO: 45 (antibody, V domains shown)
# VH: B1 VH with H52S, A58S, N67S, N104S
# notes: as for B1
# B19: anti-CD22 heavy chain-only antibody with the VH of SEQ ID NO: 40 (antibody, V domains shown)
# VH: B1 VH with N104S
# notes: as for B1
# B20: anti-CD22 heavy chain-only antibody with the VH of SEQ ID NO: 47 (antibody, V domains shown)
# VH: B1 VH with D33G, H52S, A58S, N104S
# notes: as for B1
# B21: anti-CD22 heavy chain-only antibody with the VH of SEQ ID NO: 54 (antibody, V domains shown)
# VH: B1 VH with D27G, K77R
# notes: as for B1
# B22: anti-CD22 heavy chain-only antibody with the VH of SEQ ID NO: 31 (antibody, V domains shown)
# VH: B1 VH with D33G, E100D
# notes: as for B1
# B23: anti-CD22 heavy chain-only antibody with the VH of SEQ ID NO: 34 (antibody, V domains shown)
# VH: B1 VH with A58V, K77R
# notes: as for B1
# B24: anti-CD22 heavy chain-only antibody with the VH of SEQ ID NO: 36 (antibody, V domains shown)
# VH: B1 VH with K77R, N104S
# notes: as for B1
# B25: anti-CD22 heavy chain-only antibody with the VH of SEQ ID NO: 58 (antibody, V domains shown)
# VH: B1 VH with D27G, G32S, D33S, H52S, A58S, N67S, K77R, K83N, N104S
# notes: as for B1
# B26: anti-CD22 heavy chain-only antibody with the VH of SEQ ID NO: 33 (antibody, V domains shown)
# VH: B1 VH with A58V, E100D
# notes: as for B1
# B27: anti-CD22 heavy chain-only antibody with the VH of SEQ ID NO: 42 (antibody, V domains shown)
# VH: B1 VH with H52S, E100D
# notes: as for B1
# B28: anti-CD22 heavy chain-only antibody with the VH of SEQ ID NO: 57 (antibody, V domains shown)
# VH: B1 VH with D27G, G32S, D33S, A58V, E100D
# notes: as for B1
# B29: anti-CD22 heavy chain-only antibody with the VH of SEQ ID NO: 30 (antibody, V domains shown)
# VH: B1 VH with E100D
# notes: as for B1
# B30: anti-CD22 heavy chain-only antibody with the VH of SEQ ID NO: 43 (antibody, V domains shown)
# VH: B1 VH with D27G, K77R, E100D
# notes: as for B1
# B31: anti-CD22 heavy chain-only antibody with the VH of SEQ ID NO: 41 (antibody, V domains shown)
# VH: B1 VH with K77R
# notes: as for B1
# B32: anti-CD22 heavy chain-only antibody with the VH of SEQ ID NO: 56 (antibody, V domains shown)
# VH: B1 VH with D27G, G32S, D33S, A58V, V94A, E100D
# notes: as for B1
# B33: anti-CD22 heavy chain-only antibody with the VH of SEQ ID NO: 32 (antibody, V domains shown)
# VH: B1 VH with K77R, K83N, N104S
# notes: as for B1
# B34: anti-CD22 heavy chain-only antibody with the VH of SEQ ID NO: 53 (antibody, V domains shown)
# VH: B1 VH with H52S, S56T, A58S, N67S
# notes: as for B1
# Legend:
# [1] = target: T1, human CD22 on CD22-positive Burkitt's …; experiment: cell binding, Daudi cells
# Protocol: Binding to CD22 positive cells was assessed by flow cytometry (Guava easyCyte 8HT, EMD Millipore) using the Daudi cell line (ATCC). Briefly, 100,000 target cells were stained with a dilution series of purified UniAbs™ for 30 minutes at 4° C. Following incubation, the cells were washed twice with flow cytometry buffer (1×PBS, 1% BSA, 0.1% NaN_3) and stained with goat F(ab')2 anti-human IgG conjugated to R-phycoerythrin (PE) (Southern Biotech, cat. #2042-09) to detect cell-bound antibodies. After a 20-minute incubation at 4° C., the cells were washed twice with flow cytometry buffer and then mean fluorescence intensity (MFI) was measured by flow cytometry. EC50 values were calculated using GraphPad Prism 7. Binding to *cynomolgus* CD22 positive cells was determined using the same protocol with the following modifications: the target cells were from CHO cells stably transfected to express the extracellular domain of *cynomolgus* CD22 and each antibody was tested at a single concentration (~1.7 µg/mL) so EC50 values were not calculated.
# [2] = target: T2, human CD22 protein (recombinant CD22 …); experiment: ELISA on recombinant CD22 extracellular domain and/or cell binding
Binder,binding result [1],binding result [2]
B1,binds,binds
B2,binds,binds
B3,binds,binds
B4,binds,binds
B5,binds,binds
B6,binds,binds
B7,binds,binds
B8,binds,binds
B9,binds,binds
B10,binds,binds
B11,binds,binds
B12,binds,binds
B13,binds,binds
B14,binds,binds
B15,binds,binds
B16,binds,binds
B17,binds,binds

Binder,binding result [1],binding result [2]
B18,binds,binds
B19,binds,binds
B20,binds,binds
B21,binds,binds
B22,binds,binds
B23,binds,binds
B24,binds,binds
B25,binds,binds
B26,binds,binds
B27,binds,binds
B28,binds,binds
B29,binds,binds
B30,binds,binds
B31,binds,binds
B32,binds,binds
B33,binds,binds
B34,binds,binds
